This experiment concerns blood clots (fibrin and NET scaffold). Kind of experiment: Clot formation in recalcified blood with or without PAF-activated neutrophils (thrombolysis). It is filed as cell-based, human. The following applies: tPA 25 μg/mL. The procedure:
Fibrin polymerization was induced in blood by recalcification and incubated either in the absence (medium) or presence of neutrophils preactivated by PAF to induce NET formation (neutrophils+PAF). Samples were treated with DNase to digest extracellular traps or tPA for fibrin digestion. […] (Scale bar, 1 cm.) The graph presents quantification of the clots by weighing. […] Data are presented as mean±SEM, n=4; (ANOVA; ***P<0.001). The first bar in each x-axis category represents the untreated samples, the second bar represents the samples treated with DNase, the third bar represents the samples treated with tPA, and the fourth bar represents the samples treated with tPA and DNase.
The relative susceptibility of NETs and fibrin to serve as scaffolds for blood clots to thrombolysis was examined (FIG. 20). Neutrophils were prestimulated with platelet-activating factor to release NETs with recalcified blood under stirring conditions. Two-hundred-fifty microliters of 5×10^6 neutrophils per milliliter in RPMI medium were activated by platelet activating factor (50 μM Calbiochem) at 37° C. under static conditions to induce NET formation. Control samples were 250 μL medium alone, 250 μL of unstimulated neutrophils, or 250 μL of 50 μM PAF in medium. After 10 min, 250 μL of recalcified (40 mM CaCl2) ACD anticoagulated blood was added. The mixture was incubated under stirring conditions (1,000 rpm) at 37° C. using an Eppendorf Thermomixer. Indicated samples were supplemented with tPA (25 μg/mL, Baxter) or DNase 1 (100 U/mL, Worthington Biochem). After 20 min, the blood was passed through a 100-μm cell strainer to isolate the clot. Images were acquired and the clot was determined. Thereafter, 10-μm frozen sections of the clot were prepared and stained for fibrinogen (mouse-antihuman-fibrinogen, Sigma) and VWF (rabbit-antihuman-VWF, Chemicon). Isotype control antibodies were used to determine background staining and DNA was labeled fluorescently by Hoechst 33258 (Invitrogen).

Entries after “also recorded” stand apart in the source; their conditions may differ.

B1: tPA: tissue plasminogen activator (25 μg/mL, Baxter) for fibrin digestion (protein, UniProt P00750 36-562, looked up)
Tissue-type plasminogen …: SYQVICRDEKTQMIYQQHQSWLRPVLRSNRVEYCWCNSGRAQCHSVPVKSCSEPRCFNGGTCQQALYFSDFVCQCPEGFAGKCCEIDTRATCYEDQGISYRGTWSTAESGAECTNWNSSALAQKPYSGRRPDAIRLGLGNHNYCRNPDRDSKPWCYVFKAGKYSSEFCSTPACSEGNSDCYFGNGSAYRGTHSLTESGASCLPWNSMILIGKVYTAQNPSAQALGLGKHNYCRNPDGDAKPWCHVLKNRRLTWEYCDVPSCSTCGLRQYSQPQFRIKGGLFADIASHPWQAAIFAKHRRSPGERFLCGGILISSCWILSAAHCFQERFPPHHLTVILGRTYRVVPGEEEQKFEVEKYIVHKEFDDDTYDNDIALLQLKSDSSRCAQESSVVRTVCLPPADLQLPDWTECELSGYGKHEALSPFYSERLKEAHVRLYPSSRCTSQHLLNRTVTDNMLCAGDTRSGGPQANLHDACQGDSGGPLVCLNDGRMTLVGIISWGLGCGQKDVPGVYTKVTNYLDWIRDNMRP
For the molecule B1, the clot formation result (absence of activated neutrophils (medium), DNase 100 U/mL) was “prevented clot formation”. Besides, the fibrin in clot result (presence of PAF-activated neutrophils) was “removed fibrin”. Besides, the “clot formation / clot size” value (presence of PAF-activated neutrophils, DNase 100 U/mL) is “did not prevent clot formation; also recorded: reduced clot size”.

The values above are taken from patent US11819540B2, “Methods for treating and preventing neutrophil-derived net toxicity and thrombosis” (CHILDREN'S MEDICAL CENTER CORPORATION, priority 2011, dated 2023).
